Assay results published in the supplement of paper PMC10126150.
± gives the standard deviation of the averaged measurements.

What follows are sequences tested on ATP (assay: switch fluorescence ratio, 500 uM ATP over buffer (Cy3 cluster intensity, sum of 5 cycles each) (fold (ratio)); higher = stronger signal-on switching upon ATP binding; sequences stand for … in TCGTCGGCAGCGTCAGATGTGTATAAGAGACAGTTTTTTTTTTTTTTTTTTTTTTTTT…TC). Conditions: aptamer strand: ATP DNA aptamer (quencher-CACCTGGGGGAGTATTGCGGAGGAAGG + anchor), 100 nM annealed; ATP concentration: 500 uM.
Outline: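 The fluorescence ratio divides summed target-cycle Cy3 intensity by summed buffer-cycle Cy3 intensity for each cluster and is averaged per switch-domain sequence. Cy3-labelled switching-strand clusters on a modified Illumina MiSeq flow-cell were annealed to 100 nM quencher-labelled ATP aptamer, then imaged in selection buffer and again after 15 min with 500 uM ATP at 22 °C. Five such cycles were run, with NaOH stripping and re-annealing between them, and clusters outside 100-1000 RFU were excluded.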
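Note: ATP exposure 15 min at 22 °C before imaging.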

Row | Sequence | switch fluorescence ratio
1 | TCCAGACGGC | 1 ± 0.013
2 | TCCAGGGCGA | 1.16 ± 0.13
3 | TCCAGGGTAA | 1.0425 ± 0.00073
4 | TCCAGGTGGG | 2.39 ± 0.19
5 | TCCAGGTTAG | 1.17 ± 0.03
6 | TCCAGTCAAA | 1.01 ± 0.075
7 | TCCAGTTTTT | 0.999 ± 0.015
8 | TCCATAAAAA | 0.999 ± 0.022
9 | TCCATCTGCG | 1.097 ± 0.007
10 | TCCATGTATC | 0.984 ± 0.02
11 | TCCATTAGGA | 0.9978 ± 0.0082
12 | TCCATTGTGT | 0.992 ± 0.029
13 | TCCATTTTGT | 1.01 ± 0.05
14 | TCCATTTTTT | 0.992 ± 0.035
15 | TCCCAAAATG | 1.01 ± 0.039
16 | TCCCACGGCC | 1.083 ± 0.0017
17 | TCCCATTTGG | 1.03 ± 0.072
18 | TCCCATTTTT | 1.01 ± 0.038
19 | TCCCCGTCGA | 1.88 ± 1.2
20 | TCCCGGCAGA | 0.997 ± 0.013
21 | TCCCGGGAAA | 1.04 ± 0.082
22 | TCCCGTTATT | 1.01 ± 0.025
23 | TCCCTACGAT | 1.06 ± 0.016
24 | TCCCTTGGGT | 1 ± 0.0092
25 | TCCCTTTCGA | 1.21 ± 0.063
26 | TCCGACTCG | 1.09 ± 0.041

Row | Sequence | switch fluorescence ratio
27 | TCCGAGCCTT | 2.08 ± 0.12
28 | TCCGAGGGGT | 1.67 ± 0.91
29 | TCCGAGTTGG | 1.05 ± 0.023
30 | TCCGATTATG | 1.0175 ± 0.00092
31 | TCCGCGGAG | 1.15 ± 0.13
32 | TCCGCTTGAG | 1.36 ± 0.016
33 | TCCGGAGAAT | 1.79 ± 1.1
34 | TCCGGGGCAA | 3.73 ± 2
35 | TCCGGGGCGG | 1.11 ± 0.06
36 | TCCGGGGTCG | 1.034 ± 0.0062
37 | TCCGGGGTGT | 1.26 ± 0.44
38 | TCCGGGTTGT | 1.04 ± 0.056
39 | TCCGGTAGTT | 1.06 ± 0.013
40 | TCCGGTCAGC | 1.13 ± 0.15
41 | TCCGTAAACG | 1.09 ± 0.041
42 | TCCGTAGTGT | 2.12 ± 0.37
43 | TCCGTCCCCG | 1.35 ± 0.058
44 | TCCGTCGCAA | 2.23 ± 0.41
45 | TCCGTCGGGG | 1.01 ± 0.033
46 | TCCGTGGGGA | 1.16 ± 0.25
47 | TCCGTTGATA | 1.165 ± 0.01
48 | TCCGTTGCGG | 1.03 ± 0.034
49 | TCCGTTGGCT | 1.07 ± 0.062
50 | TCCGTTTCTG | 0.971 ± 0.018
51 | TCCTAACTTG | 1.01 ± 0.014
52 | TCCTAAGGGC | 1.04 ± 0.038

Row | Sequence | switch fluorescence ratio
53 | TCCTAAGGGG | 1.79 ± 1
54 | TCCTACTGGG | 1.04 ± 0.028
55 | TCCTCAAATG | 1.607 ± 0.002
56 | TCCTCAGGTG | 4.07 ± 0.33
57 | TCCTCAGTGC | 1.93 ± 0.13
58 | TCCTCATTTG | 1.005 ± 0.0078
59 | TCCTCGAGCT | 1.82 ± 1.2
60 | TCCTCTTAAG | 1.09 ± 0.03
61 | TCCTGAATGA | 1 ± 0.03
62 | TCCTGAGGCG | 1.02 ± 0.022
63 | TCCTGATTTT | 1.02 ± 0.037
64 | TCCTGCTCCG | 1.56 ± 0.13
65 | TCCTGCTGTT | 0.998 ± 0.02
66 | TCCTGGGGTC | 1.05 ± 0.043
67 | TCCTGGTGCG | 1.13 ± 0.024
68 | TCCTGTTACA | 1.03 ± 0.017
69 | TCCTTGATCC | 1.02 ± 0.089
70 | TCCTTGATTG | 0.974 ± 0.057
71 | TCCTTGGCTT | 1.47 ± 0.49
72 | TCCTTGGGGA | 1.08 ± 0.086
73 | TCCTTGTGGT | 0.973 ± 0.037
74 | TCCTTTGGAT | 1.05 ± 0.049
75 | TCCTTTGTAT | 1.1 ± 0.015
76 | TCCTTTTAAC | 1.25 ± 0.085
77 | TCGAAATATT | 1.55 ± 0.81
78 | TCGAACGTTT | 1.324 ± 0.0088

Row | Sequence | switch fluorescence ratio
79 | TCGAAGAGTT | 0.994 ± 0.033
80 | TCGAAGGGCG | 1.021 ± 0.0057
81 | TCGAATGGCC | 0.994 ± 0.024
82 | TCGACCGATT | 1.03 ± 0.037
83 | TCGACGGGAT | 2.42 ± 0.31
84 | TCGAGAAGGT | 0.993 ± 0.054
85 | TCGAGAGAGG | 1.01 ± 0.049
86 | TCGAGATCCG | 0.996 ± 0.018
87 | TCGAGCAGGG | 1.07 ± 0.055
88 | TCGAGGCACT | 1.28 ± 0.17
89 | TCGAGGCGGG | 1.18 ± 0.21
90 | TCGAGGGAGG | 0.994 ± 0.075
91 | TCGAGGGGGT | 0.986 ± 0.054
92 | TCGAGGTATA | 2.94 ± 2.6
93 | TCGAGTATAT | 0.981 ± 0.021
94 | TCGAGTCGTG | 0.9922 ± 0.0054
95 | TCGATAGGGA | 1.01 ± 0.03
96 | TCGATGCGTG | 1.01 ± 0.011
97 | TCGATGTTTC | 1.01 ± 0.026
98 | TCGATTGGTG | 1.01 ± 0.013
99 | TCGATTTGGT | 0.9749 ± 0.008
100 | TCGATTTTTT | 1.01 ± 0.028
101 | TCGCAGCTTG | 1.05 ± 0.029
102 | TCGCATAGGT | 1.1 ± 0.12
103 | TCGCCGCTTT | 1.76 ± 0.11
104 | TCGCCGTATG | 0.999 ± 0.018

Row | Sequence | switch fluorescence ratio
105 | TCGCGCAGAA | 1.061 ± 0.0063
106 | TCGCGCGGTA | 1.007 ± 0.01
107 | TCGCGCTATT | 1.34 ± 0.39
108 | TCGCGGGCTA | 1.04 ± 0.046
109 | TCGCGGTCGG | 0.997 ± 0.015
110 | TCGCGGTGGC | 1 ± 0.029
111 | TCGCGTTTCT | 1.03 ± 0.088
112 | TCGCGTTTTT | 0.994 ± 0.031
113 | TCGCTAACGG | 1.07 ± 0.018
114 | TCGCTCCTGG | 1 ± 0.046
115 | TCGCTCTGTT | 0.991 ± 0.011
116 | TCGCTTGCGG | 1 ± 0.032
117 | TCGCTTGGGG | 1 ± 0.013
118 | TCGCTTTTTG | 1.01 ± 0.027
119 | TCGGAACTCG | 0.9824 ± 0.0063
120 | TCGGAAGTAT | 0.9629 ± 0.0083
121 | TCGGACGGAA | 2.17 ± 0.21
122 | TCGGACGGGG | 1.03 ± 0.015
123 | TCGGAGCAGG | 1.4 ± 0.058
124 | TCGGAGGGAA | 1.03 ± 0.027
125 | TCGGAGGGGA | 1 ± 0.02
126 | TCGGAGGTCC | 0.958 ± 0.029
127 | TCGGAGTCTC | 1.127 ± 0.0029
128 | TCGGATAAGT | 1.01 ± 0.034
129 | TCGGATTAAT | 1.05 ± 0.043
130 | TCGGATTGGC | 0.985 ± 0.034

Row | Sequence | switch fluorescence ratio
131 | TCGGATTTGT | 1.01 ± 0.041
132 | TCGGCCAGGT | 1.5 ± 0.046
133 | TCGGCGAAGG | 1.01 ± 0.082
134 | TCGGCGGTCT | 0.999 ± 0.025
135 | TCGGCGGTGG | 0.963 ± 0.05
136 | TCGGGAACGC | 1.04 ± 0.032
137 | TCGGGAGCAG | 1.03 ± 0.054
138 | TCGGGAGTCA | 1.011 ± 0.0091
139 | TCGGGATCCT | 1.35 ± 0.51
140 | TCGGGCCCGG | 1 ± 0.078
141 | TCGGGGAGAA | 0.992 ± 0.073
142 | TCGGGGATAT | 3.05 ± 2.9
143 | TCGGGGATG | 1.52 ± 0.83
144 | TCGGGGCCGA | 0.969 ± 0.01
145 | TCGGGGCCGG | 0.964 ± 0.037
146 | TCGGGGGAAA | 0.994 ± 0.036
147 | TCGGGGGATA | 0.98 ± 0.039
148 | TCGGGGGCGG | 1.02 ± 0.078
149 | TCGGGGGGAG | 1.01 ± 0.018
150 | TCGGGGGTAT | 1.2 ± 0.36
151 | TCGGGGGTCA | 0.9781 ± 0.0051
152 | TCGGGGGTTT | 1 ± 0.038
153 | TCGGGTATCG | 0.976 ± 0.037
